The results in this text go back to the nanobody polyreactivity screen of Harvey et al. (2022).

The series is described as follows: yeast display, Sf9 membrane polyspecificity reagent, FACS + sequencing; frameworks hold sequencing errors. Put shortly:
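A nanobody's polyreactivity label depends on the gate it was sorted from. Yeast display cells were stained with 10% biotinylated, detergent-solubilized Sf9 membrane reagent for 1 hour at 4 °C, enriched on streptavidin microbeads and sorted by FACS. The low and high (top ~1%) gates were set on anti-HA fluorescence for expression and streptavidin fluorescence for reagent binding.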
For “QVQLVESGGGLVQAGGSLRLSCAASGRTFSYYTMGWYRQAPGKERDLVAGIRSAGSTYYADSVKGRFTISRDNAKNTVYLLMNSLKPEDTAVYYCAARPYGGGRRSIYYYWGQGTQVTVSS”, the “polyreactivity (PSR sort gate)” value is “high polyreactivity”. Regarding “QVQLVESGGGLVQAGGSLRLSCAASGRTFTAYAMGWYRQAPGKERELVAAITTSGGTTYYADSVKGRFTISRDNAKNTVYLQMNSLKPEDTAVYYCAADVVVSWWLIYDYWGQGTQVTVSS”, the “polyreactivity (PSR sort gate)” value was “low polyreactivity”. To “QVQLVESGGGLVQAGGSLRLSCAASGRTFTAYAMGWYRQAPGKERELVAAITVSTSSTFYADSVKGRFTISRDNAKNTVYLQMNSLKPEDTAVYYCNKETLYPLDYWGEGTQVTVSS” belongs “low polyreactivity”; to “QVQLVESGGGLVQAGGSLRLSCAASGRTFTEYAMGWYRQAPGKERELVARISIGDSTYYADSVKGRFTISRDNAKNTVYLQMNSLKPEDTAVYYCNAEYSRSYRYDECYWGQGTQVTVSS”, “low polyreactivity”; to “QVQLVESGGGLVQAGGSLRLSCAASGRTFTEYAMGWYRQAPGKERELVARISIGDSTYYADSVKGRFTISRDNAKNTVYLQMNSLKPEDTAVYYCNAEYSRSYRYDEGYWGQGTQVTVSS”, “low polyreactivity”. To “QVQLVESGGGLVQAGGSLRLSCAASGRTFTFNAMGWYRQAPGKERELVAAITRSGGRTYYADSVKGRFTISRDNAKNTVYLQMNSLKPEDTAVYYCAAEWEYSWYDYDYWGQGTQVTVSS” belongs “high polyreactivity”. For “QVQLVESGGGLVQAGGSLRLSCAASGRTFTFNSMGGYRQAPGKERELFSRIDWRGITYADSVKGRFTISRDNAKYTVYLQMNSLKPEVTAVYYCSATFIQVVVNVQLYDYDYWGQGTQVTVSS”, the “polyreactivity (PSR sort gate)” value is “low polyreactivity”. Take “QVQLVESGGGLVQAGGSLRLSCAASGRTFTFNTMGWYRQAPGKERELVAAITISDGRTYYADSVKGRFTISRDNAKNTVYLQMNSLKREVTAVYYCAAVQKYGYYWRHNDYWGQGTQVTVSS”: the “polyreactivity (PSR sort gate)” value is “low polyreactivity”. Consider “QVQLVESGGGLVQAGGSLRLSCAASGRTFTFYAMGWYRQAPGKERELVAAISTRGGRTYYADSVKGRFTISRDNAKNTVYFQMNSLKPDDTAVYYCASRARRRYYYWGQGTQVTVSS”, for which the “polyreactivity (PSR sort gate)” value is on record as “high polyreactivity”. For “QVQLVESGGGLVQAGGSLRLSCAASGRTFTGNTMGWYRQAPGKERELVAAITKRGGSTYYADSVKGRFTISRDNAKNTVYLQMNSLKPEDTAVYYCAATSGVYRVGIIKYDYWGQGTQVTVSS” the value was “high polyreactivity”; for “QVQLVESGGGLVQAGGSLRLSCAASGRTFTGYAMGWDRQAPGKERELVAGISYRGGSTYYADSVKGRFTISRDNAKNTVYLQMNSLKQEVTAVYYCARDYSRHKGDYWGQGTQVTVSS”, “low polyreactivity”; for “QVQLVESGGGLVQAGGSLRLSCAASGRTFTGYAMGWYRQAPGKERELVAAISQGSGSTYYADSVKGRFTISRDNAKNTVYLQMNSLKPEDTAVYYCAAERAYYQTGHYYWGQGTQVTVSS”, “high polyreactivity”. For “QVQLVESGGGLVQAGGSLRLSCAASGRTFTGYAMGWYRQAPGKERELVASISGSGGRTNYADSVKGRFTISRDNAKNTVYLQMNSLKPEDTAVYYCAARYRTWFGYWGQGTQVTVSS” the value was “high polyreactivity”; for “QVQLVESGGGLVQAGGSLRLSCAASGRTFTHNVMGRYRQAPGKERELVAGISSTGGSTYYADSVKGRFTISRDNAKNTVYLQMNSLKPEDTAVYYCAVIGYHYSAISPPSQTRQGYDYWGQGTQVTVSS”, “low polyreactivity”. For “QVQLVESGGGLVQAGGSLRLSCAASGRTFTHNVMGWYRQAPGKERELVAGISSTGGSTYYADSVKGRFTISRDNAKNTVYLQMNSLKPEDTAVYYCAVIGYHYSAISPPSQTRQGYDYWGQGTQVTVSS”, the “polyreactivity (PSR sort gate)” value is reported as “low polyreactivity”. To “QVQLVESGGGLVQAGGSLRLSCAASGRTFTHYAMGWYRQAPGKERELVAVITTGGSTYYADSVKGRFTISRDNAKNTVYLQMNSLKPEDTAVYYCAATALSGLGYWGQGTQVTVSS” belongs “low polyreactivity”; to “QVQLVESGGGLVQAGGSLRLSCAASGRTFTIYAMGSYRQAPGKERELVAAITRSGGGTYYADSVKGRFTISRDNAKNTVYFQMKSLKPEDTAVYYCARDKHWFYGVIGPEDYWGQGTQVTVSS”, “low polyreactivity”; to “QVQLVESGGGLVQAGGSLRLSCAASGRTFTIYAMGWYRQAPGKEREFVAGITTGGSSTYYADSVKGRFTISRDNAKNTVYLQMNILKPEDTAVYYCAAVSYAWYDYWGQGTHVTVSS”, “low polyreactivity”. On to “QVQLVESGGGLVQAGGSLRLSCAASGRTFTKYAMGWYIQAPGKERELVASISTRGGSTYYADSVKGRFTISRDNAKNTVYLQMNSLKPEDTAVYYCNKGFRHRAPSSTPYDYWGQGTQVTVSS”, for which the “polyreactivity (PSR sort gate)” value is listed as “high polyreactivity”. For the sequence “QVQLVESGGGLVQAGGSLRLSCAASGRTFTKYAMGWYRQAPGKERELVATIRGRGGSTYYADSVKGRFTISRDNAKYTVYLQMNSLKPEDTAVYYCAADYWFSSRKYDYWGQGTQVTVSS”, the “polyreactivity (PSR sort gate)” value is reported as “high polyreactivity”.

Regarding “QVQLVESGGGLVQAGGSLRLSCAASGRTFTLNAMGWYRQAPGKERELVAAISGDTGSTYYADSVKGRFTISRDNAKNTVFLQMNSLKPEDTAVYYCATRHAGTWYYWFERYYWGQGTQVTVSS”, the “polyreactivity (PSR sort gate)” value is given as “high polyreactivity”. As to “QVQLVESGGGLVQAGGSLRLSCAASGRTFTPNAMGWYRQAPGKERELVAAITSTGGRTYYADSVKGRFTISRDNAKNTVYLQMNSLKPEDTAVYYCAVSYRYLRKYGYWGQGTQVTVSS”, the “polyreactivity (PSR sort gate)” value is “high polyreactivity”. For the sequence “QVQLVESGGGLVQAGGSLRLSCAASGRTFTPNAMGWYRQAPGKERELVASIRRGTSTYYADSVKGRFTISRDNAKNTVYLQMNSLKPEDTAVYYCAARPFVPRVGTYSYYWGQGTQVTVSS”, the “polyreactivity (PSR sort gate)” value is given as “high polyreactivity”. As to “QVQLVESGGGLVQAGGSLRLSCAASGRTFTPYDMGWYRPAPGKERELVAAITWRGGSTYYADSVKGRFTISRDNAKNTVYLQMNSLKPEDTAVYYCAKDRWTYAFRVGYGYWGQGTQVTVSS”, the “polyreactivity (PSR sort gate)” value is listed as “high polyreactivity”. “QVQLVESGGGLVQAGGSLRLSCAASGRTFTRNAMGWYRQAPGKERELVAAITGRGGSTYYADSVKGRFTISRDNAKNTVYLQMNSLKPEDTAVYYCARFYRYSRDYWGQGTQVTVSS”: the “polyreactivity (PSR sort gate)” value is reported as “high polyreactivity”. On to “QVQLVESGGGLVQAGGSLRLSCAASGRTFTRNAMGWYRQAPGKERELVAAITRGASTYYADSVKGRFTISRDNAKNTVYLQMNSLKPEDTAVYYCAVSQYRGIYRKYDYWGQGTQVTVSS”, for which the “polyreactivity (PSR sort gate)” value is on record as “high polyreactivity”. Consider “QVQLVESGGGLVQAGGSLRLSCAASGRTFTRYAMGWYRQAPGKERELVAAISRGGGGTYYADSVKGRFTISRDNAKNTVYLQMNSLKPEDTAVYYCAADGDRSAQRYTGYYYWGQGTQVTVSS”, for which the “polyreactivity (PSR sort gate)” value is listed as “high polyreactivity”. Consider “QVQLVESGGGLVQAGGSLRLSCAASGRTFTRYAMGWYRQAPGKERELVAAISRRGGRTFYADSVKGRFTISRDNAKNTVYLQMNSLKPEDTAVYYCAADYKSSPPLPEYDYWGQGTQVTVSS”, for which the “polyreactivity (PSR sort gate)” value is listed as “high polyreactivity”. For “QVQLVESGGGLVQAGGSLRLSCAASGRTFTRYAMGWYRQAPGKERELVAAISYIGGRTNYADSVKGRFTISRDNAKNTVYLQMNSLKPEDTAVYYCAASRPWVYYDGLDYWGQGTQVTVSS”, the “polyreactivity (PSR sort gate)” value is given as “high polyreactivity”.

Turning to “QVQLVESGGGLVQAGGSLRLSCAASGRTFTRYAMGWYRQAPGKERELVAAITSDGTTYYADSVKGRFTISRDNAKNTVYLQMNSLKPEDTAVYYCNAQYKFPDLGGYDYWGQGTQVTVSS”, the “polyreactivity (PSR sort gate)” value is given as “high polyreactivity”. As for “QVQLVESGGGLVQAGGSLRLSCAASGRTFTRYAMGWYRQAPGKERELVAAITSSGRTYYADSVKGRFTISRDNAKNTVYLQMNSLKPEDTAVYYCAARGVYVKYYYWGQGTQVTVSS”, the “polyreactivity (PSR sort gate)” value is “high polyreactivity”. As to “QVQLVESGGGLVQAGGSLRLSCAASGRTFTRYAMGWYRQAPGKERELVATITRGGSTNYADSVKGRFTISRDNAKNTVYLQMNSLKPEDTAVYYCAAGYFIRTRSRYRYDYWGQGTQVTVSS”, the “polyreactivity (PSR sort gate)” value is reported as “high polyreactivity”. As for “QVQLVESGGGLVQAGGSLRLSCAASGRTFTRYAMGWYRQAPGKERELVATITRGGSTNYADSVKGRFTISRDNSKNTVYLQMNSLKPEDTAVYYCAAGYFIRTRSRYRYDYWGQGTQVTVSS”, the “polyreactivity (PSR sort gate)” value was “high polyreactivity”. For “QVQLVESGGGLVQAGGSLRLSCAASGRTFTSNAMGWYRQAPGKERELVAAISNRGTRTYYADSVKGRFTISRDNAKNTVYLQMNSLKPEDTAVYYCAARVSTVFKRYYYWGQGTQVTVSS” the value was “high polyreactivity”. As for “QVQLVESGGGLVQAGGSLRLSCAASGRTFTSNAMGWYRQAPGKERELVAAITRGGSTYYADSVKGRFTISRDNAKITVYLQMNSLKPEDTAVYYCAAAYGGRLRYTAGYYWGQGTQVTVSS”, the “polyreactivity (PSR sort gate)” value was “high polyreactivity”.

Take “QVQLVESGGGLVQAGGSLRLSCAASGRTFTSYAMGWYRQEHGKERELVAGISSGGSTNYADSVKGRFTLSRDNAKNTVYLQMNSLKPEDTAVYYWAAGFSPGSYDAPTLAFEYWGQGTQVTVSS”: the “polyreactivity (PSR sort gate)” value is reported as “low polyreactivity”. Take “QVQLVESGGGLVQAGGSLRLSCAASGRTFTTNAMGWYRQAPGKERELVAAITIGDDTYYADSVKGRFTISRDNAKNTVYLQMNSLKPEDTEVYYCSADYKRVPFVTQYVSKDGYWGHGTQVTVSS”: the “polyreactivity (PSR sort gate)” value is given as “low polyreactivity”.

Regarding “QVQLVESGGGLVQAGGSLRLSCAASGRTFTTYAMGWYRQAPGKERELVAAISGSGGSTYYADSVKGRFTISRDNAKNTVYLQMNSLKPEDTAVYYCATAYYYHGGYYYPYDDDWGQGTQVTVSS”, the “polyreactivity (PSR sort gate)” value is given as “low polyreactivity”.

For “QVQLVESGGGLVQAGGSLRLSCAASGRTFTVYAMGWYRQAPGKERELVAAISSGGITYYADSVKGRFTISRDNAKNTVYLQMNSLKPEDTAVYYCNTKSGKARYVFGYWGQGTQVTVSS”, the “polyreactivity (PSR sort gate)” value is “low polyreactivity”. Consider “QVQLVESGGGLVQAGGSLRLSCAASGRTFVANTMGWYRQAPGKEREFVAGISRRGGSTYYADSVKGRYTISRDNAKNTVYLQMNSLKPEDPAVYYCAVGTWARYRGLEYDYWGQGTQVTVSS”, for which the “polyreactivity (PSR sort gate)” value is “high polyreactivity”.
